In the nanobody polyreactivity screen of Harvey et al. (2022):

experiment: yeast display, Sf9 membrane polyspecificity reagent, FACS + sequencing; frameworks hold sequencing errors
In short: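 Nanobodies came from a synthetic yeast display library in Saccharomyces cerevisiae BJ5465, induced with galactose for 36–48 hours and stained for 1 hour at 4 °C with 10% biotinylated, detergent-solubilized Sf9 membrane reagent. Cells were enriched on streptavidin microbeads and then FACS-sorted, with low and high (top ~1%) gates set on anti-HA fluorescence for expression and streptavidin fluorescence for reagent binding. Each polyreactivity label reflects the gate a clone came from. Genes were amplified by colony PCR, sequenced by MiSeq 2 × 250 and filtered by CDR length.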

| Sequence | polyreactivity (PSR sort gate) |
| --- | --- |
| QVQHVESGGGLVQAGGSHRLSSAASGSTFRGYVMGWYRQAPGKERELVAVITTSDGDTYYADSVKGRFTNSRDNAKNTVYLQMNSLKPEDTAVYYCNADLYSYYGDNYWGQGTQVTVSS | low polyreactivity |
| QVQLVESGGGLVQAGGSLRLSCAASGRTFRYNAMGWYRQAPGKERELVAAISRSGGRTYYADSVKGRFTISRDNAKNTVYLQMNSLKPEDTAVYYCAAYYYTAGDSSSRYDYWGQGTQVTVSS | high polyreactivity |
| QVQLVESGGGLGQAGGSLRLSCAASGRIFGVYGMGWYRQAPGNDRELVAAITLAGRTNYADSVKGRFTISRDNAKNTVYLQMNSLKPQDTAVYYCAAEKRKLFQGVARYRYEDWGQGTQVTVSS | low polyreactivity |
| QDQLVESGGGLVQAGGSLRLSCAASGFTFHNNVMGWYRQAPGKERELVATISKSGGSTYYADSVKGRITISRDNAKNTVYLQMNSLKPEDTAVYYCARRYRDYGRYGYWGQGTQVTVSS | high polyreactivity |
| QVQLVESGGGLDQAGGSLRLSCAASGITFDYYAIGWYRQAPGKERELVAAISRAGSTNYADSVKGRFTISRDNAKNTVYLQMNSLKPEDTAVYYCNNGYHSWSRLSQFGWSYDYWGQGTQVTVSS | high polyreactivity |
| QGQLGDSGGGLVQAGGSLRLSCAASGLTFWGKVMGWSRPAPGKERELVAAITSGGSTYYADSVKGRFTISRDNAKNTVFLQMNSQKPEDTAVYYCATAFYYSYSEYYYWGQGTQVTVSS | high polyreactivity |
| QVQLVESGGGLVQAGGSLRLSCAASGRTFIANAMGWYRQAPGKERELVAVITLNGGSTYYADSVKGRFTISRDNAKSTVYLQMISLKPEDTAVYYCAAGRYYNLRATHGYWGQGTQVTVSS | low polyreactivity |
| QVQLVESGGGLVQAGGSLRLTCAASGFIFDTYAMGWYRQAPGKERELVAAISWTGTDTYYADSVKGRFTISRDNAKNTVYLQMNSLKPEDTAVYYCAARSRYKYSPSGDYWGQGTQVTVSS | high polyreactivity |
| QVQLVETGGGIVQAGGRLRLSCAASGFTFYANTMGWYRQAPGKERELVATIRSTGSTKYADSVKGRFTISRDNAMNTVYLQMNSLNPEDTAVYYCAKRDRYYGVAVEGIRYDYWGQGTQVTVSS | high polyreactivity |
| QVQLVESGGGLVQAVGGLRLSCAASGSTFKRNTMGSYRQAPGKEMELVAAISRSGGSTYYADSVKGRFTISRDNAKNTVYLQMNSLKPEDTAVYYCNAYVSSYVGSRSYGLSPYDYWGQGTQVTVSS | high polyreactivity |
| QVQLVETGGGLVKAGGSLRLSCAASGITFSVYTMGWDRQAPGKERELVASITRSVGSTYYADSVKGRFTISRDNAKNTVYLQMNSLKPEDTAVYYCAARRTVVTGRYYWGQGTQVTVSS | high polyreactivity |
| QVQLVESGGGLVQAGGSLRLSCAASGSILTDNAMGWYRQAPGKERELVASITGSGGSTYYADSVKGRFTISRDNAKNSVYLQMNSLKRVDTAVYYCAASYRLRYGYWGQGTQVTVSS | high polyreactivity |
| QVQLVESGGGLVQAGGSLRLSCAASGLIFWAYAMGWYRQAPGKERELVAAINWRGGSTYYADSVKGRFTISRDNAKNTVYLQMNSLKPEDTAVYYCAADSYYDEYDYCGQGTQVTVSS | low polyreactivity |
| QVQLVESGGGLVQAGGRLRLSCAASGSIFPFYAMGWYRQAPGKERELVAAISDRGGSTYYADSVKGRFTISRDNAKNTVYLQMISLKPEDTAVYYCAKGGEVSQGYTDEYDYWGQGTQVTVSS | low polyreactivity |
| QVQLVESGVGLVQAGRSLRLSCAASGRTFVQYAMGWYRQAPGKERELVARISRRGGSTYYADSVKGRFTISRDKAKNSVYLQMNSLKPEDTAVYYFAADAYPYWYDYWGQGTQVTVSS | high polyreactivity |
| QVQLVESGGGLVQAGGSLRLSCDASGSIFDHNSMGWYRQAPGKERELVAAISSNGVRTYYADSVKGRFTISRDNAKNTVYLQMNSLKTEDTAVYYCNAQRFVGLNVYGYDYWGQGTQVTVSS | high polyreactivity |
| QVQLVESGGGLVQAGGSLRLSCAASGRTFFDYAMGWYRQAPGKERELVATIRGGGSTNYADSVKGRFTISRDNAKNTVYLQMNSLKPEDTAVYYCAVRRRWYFPQYRSGRSLDYWGQGTQVTVSS | high polyreactivity |
| QVRLVESGGGLVQAGGSLRLSCAASGSTFVYYAMGRYRQAPGNERELVAAITSGDSTYYADSVKGRFTISRDNAKNTVYLQMNSLKPEDTAVYYCAKRISYLPVEMDYWGQGTQVSVSS | low polyreactivity |
| QVQLVESGGGLVQAGGSLRLSCAASGSIFPSNVMGSYRQAPGKERELVAAISNTGSTNYADSVKGRFTISRDNAKNTVYLQMNSLKPEDTAVYYCNADASYGFWSLLDYDYWGQGTQVTVSS | low polyreactivity |
| QVQLVESGGGLVQAGGSLRLSCAASGNTFQYYALGWYRQAPGKERELVAAITTGGSKNFADSVKGRFTISRDNAKNTVYLQMNSLKPEDTAVYYCAARGGVSKRISDYWGQGTQVTVSS | low polyreactivity |
| QVQLVESGGGLVQAGGSLRLSCPASGSICRYYAMGWYRQAPGKERELVAVITRGGSTYYADSVKGRFTISRDNAKNTVYLQMNSLKPEDTAVYYCAADYWPAGLDRGYWGQGTQVTLSS | low polyreactivity |
| QVQLVESGVGLVQAGGSLRLSCAASGSTFKYYGMGWYRQAPGKERELVASISSSGTRTYYADSVKGRFTISSDNAKNTVYLQMNSLKPEDTAVYYCAADSYATYFLYDSWGQGTQVSVSS | low polyreactivity |

| Sequence | polyreactivity (PSR sort gate) |
| --- | --- |
| QVQLVESGGGLVQAGGSLRLSCDASGSIFGKYTMGWYRQAPGKVRELVAAISKRGGSTRYADSVKGRFTISRDNAKNTVYLQMNSLKPEDTAVYYCAAYRYWMYRYQIVNYGYWGQGTQVTVSS | high polyreactivity |
| QFQLVESGGGLVQAGGSLRLSCAASGSTFLSNAMGWYRQAPGKERELVAGIDYNDGSTYYADSVKGRFTISRDNAKNTVYLKMNRLKPADTAVYYCAARWVFRRYVICMDFWGQGTEVTVSS | low polyreactivity |
| QVQLVESGGGLVQAGGRLRLSCAASGIIFVYYAMGWYRQAPGKERELVADITRSGSSTYYADSVKGRFTISRDNAKNTVYLQMNSLKAEDTAVYFCAADNFYQAYGYWGQGTQVTVSS | low polyreactivity |
| QVQLVESGGGLVQAGGSLRLSCAASGFIFPSYAMGWYRQAPGKERELVAAITSSGGSTYYADSVKGRFTISRDNAKNTVYLQMNSLKPEDTAVYYCNARYPGRARRYNYWGQGTQVTVSS | high polyreactivity |
| QVQLVESGGGLVQAGGSLRLSCAASGRTFRSYDMGWYRQAPGKERELVAAISKRGGNTYYADSVKGRFTISRDNAKNTVYLQMNSLKPEDTAVYYCAKRVSGSPPTAGSLSDSWGQGTQVTVSS | high polyreactivity |
| QVQLVESGGGLVQAGGSLRLSCAASGRIFYYNAMGWYRPAPGKERELVAAINYRGGSTYYADSVKGRFTISRDNAKNTVYFQMNSLKPEDTAVYDCAARYWKDGSTYDYWGQGTQVTVSS | high polyreactivity |
| QVQLVESGGGLVQAGGSLRLSCAASGSIFKEYAMGWYRQAPGKERELVATISWSGGSTYYADSVKGRFTISRDNAKNTVYLQMNSLKPEDTAVYYCNKSTPWWYVVRYDYWGQGTQVTVSS | high polyreactivity |
| QVQLVESGGGLVQAGGSLRLSCAASGSIFYRNAMGWYRQAPGKERELDAAIDSGDSTNYADSVKGRFTISRDNAKNTVYLQMNSLKPEDTAVYYCAARVIYYYGSGPYDYWGQGTQVTVSS | low polyreactivity |
| QVQLVESGGGLVQEGGSLRLSCAASGRTFAVYAMGWYRQAPGKERELVAAITYGGGRTYYADSVKGRFTISRDNAKNTVYLQMNSLKPEDTAVYYCAADYYGTDYDYWGQGTQVTVSS | low polyreactivity |
| QVQLVESGGGLDQAGGSLRLSCAASGSIFFYNVLGWYRQAPGKERELVASISWRGASTYYADSVKGRFTISRDNAKNTVYLQMNSLKPEDTAVYYCAARFRSATRYQTGYYWGQGTQVTVSS | high polyreactivity |
| QVQLVDSGGGLVQAGGRLRLSCAASGFIYEPNAMGGYRQAPGKEMELVAAISSGGSTYADSVKGRFTISRDNAKNTVYLQMNSLKPEDTAVYYCAADSYYSVWGFYYWGQGTQVTVSS | low polyreactivity |
| QVQLVESGGGLVQAGGSLRLSCAASGIIFYEYVMGWYRPAPGKERELVAAINRSGGSTYYADSVKGRFTISRDNAKNTVYLQMNSLKPEDTAVYYCAASSTYDGRKYYYWGQGTQVNVSS | high polyreactivity |
| QVQLVESGGGLVQAGGSLRLSCAASGRTFRKKAMGWYRRAPGKERELVAAISASGTSTYYADSVKGRFTNSRDNAKISVYLQMISLKPEDTAVYYCAARSYGIYDYWGQGSQVTVSS | high polyreactivity |
| QVQLVESGGGLVQAGGSLRLSCAASGSIFYLNAMGWYRQAPGKERELVAAINRGGSTSYADSVKGRFTISRDNAKNTVYLQMNSLKPEDTAVYYCAADHGGVQYSVRYDYWGQGTQVTVSS | low polyreactivity |
| QVQLVESGGGLVQAGVSLRLSCAASGGIFGNYAMGGYRQAPAKERELVAAINGGTSTYYADSVKGRFTISRDNAKNTVYLQMNCLKPEDTAGYYCAADWRYLYYALDYWGQGTQVTVSS | low polyreactivity |
| QVQLVESGGGLVQAGGSLRLSCAASGLIFSYNAMGWYRQAPGKERELVASISSGDSTNYADSVKGRFTISRDNAKNTVYLQMNSLKPEDTAVYYCNKVYSWGDYTPPFYFPYDYWGQGTQVTVSS | low polyreactivity |
| QVQLVESGGGLVQAGGSLRLSCASSGSTFTRYAMGWYRQAPGKERELVAAINSSGGRTYYADSVKGRFTISRDNAKNTVYLQMNSLKPEDTAVYYCAATRGRYREDEDYWGQGTQVTVSS | high polyreactivity |
| QVQLVESGGGIVQAGGSLRLSCAASGFTFTRYAMGSYRQAPGKERELVATITKRGGSTYYADSVKGRFTISRDNAKNTVYLKMNSLKPEDTAVYYCAADGASRALYDYWGQGTQVTVSS | high polyreactivity |
| QVQLVESGGGLVQAGGSLRLSCAASVITFYFNAMGWYRQAPGKERELVAVITSGGSTNYADSVKGRFTISRDNAKNTVNLQMNSLKPEDTAVYYCATDKSYSSWSAQYDYWGQGTQVTVSS | low polyreactivity |
| QVQLVESGGGLVQAGGSLRLSCAASGSTFPRYAMGWYRPAPGKERELVARISNSGASTYYADSVKGRFTISRDNAKNTVYLQMNSLKPEDTAVYYCNARRYSRPSGFKHYHYAESDYWGQGTQVTVSS | high polyreactivity |
| QVQLVESGGGLVQAGGSLRLSCAASGFTFTYYVMGWYRQAPGKDRELVAAISQGGGSTYYADSVKGRFTISRDNAKNTVYLQMNSLKPEDTAVYYCAARRVGYGTDRYYGYDSWGQGTQVTVSS | high polyreactivity |
